B1: Death-associated protein kinase 2 (Homo sapiens), Q9UIK4-2 (parent)
chain: MFQASMRSPNMEPFKQQKVEDFYDIGEELGSGQFAIVKKCREKSTGLEYAAKFIKKRQSRASRRGVSREEIEREVSILRQVLHHNVITLHDVYENRTDVVLILELVSGGELFDFLAQKESLSEEEATSFIKQILDGVNYLHTKKIAHFDLKPENIMLLDKNIPIPHIKLIDFGLAHEIEDGVEFKNIFGTPEFVAPEIVNYEPLGLEADMWSIGVITYILLSGASPFLGDTKQETLANITAVSYDFDEEFFSQTSELAKDFIRKLLVKETRKRLTIQEALRHPWITSKGEGRAPEQRKTEPTQLKTKHLREYTLKCHSSMPPNNSYVNFERFACVVEDVARVDLGCRALVEAHDTIQDDVEALVSIFNEKEAWYREENESARHDLSQLRYEFRKVESLKKLLREDIQATGCSLGSMARKLDHLQAQFEILRQELSADLQWIQELVGSFQLESGSSEGLGSTFYQDTSESLSELLSRSCTEEFLAGWKL

Variants of B1 are the subject of this assay. Particulars: with atf4_human ATF4, P18848.
Chain of atf4_human ATF4, P18848 (P18848 whole entry): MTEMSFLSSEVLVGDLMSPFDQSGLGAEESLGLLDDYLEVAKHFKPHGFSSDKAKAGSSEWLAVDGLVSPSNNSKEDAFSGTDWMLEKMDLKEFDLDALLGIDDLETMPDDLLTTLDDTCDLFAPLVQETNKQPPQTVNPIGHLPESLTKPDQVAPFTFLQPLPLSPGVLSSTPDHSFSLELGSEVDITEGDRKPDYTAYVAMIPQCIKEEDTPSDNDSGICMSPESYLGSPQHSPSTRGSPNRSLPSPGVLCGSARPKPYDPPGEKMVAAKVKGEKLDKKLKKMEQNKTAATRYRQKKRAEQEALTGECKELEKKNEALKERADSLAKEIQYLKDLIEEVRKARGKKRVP
For the variant L434A;I441A;F448A, the “effect of a mutation on the interaction” value is listed as “decreasing interaction”.

Source of the values: IntAct's records for PubMed 21408167.
